Results published in patent publication US20050282743A1, “Molecular interactions in cells” (Arbor Vita Corporation, priority 2001, published 2005).
Blank lines part the entries; values can stand above or below the compound they belong to. Ends that are not written are not given here. Peptide text beside a SMILES is read from it. * marks the point of attachment. Biotin = O=C1N[C@H]2[C@H](CS[C@H]2CCCCC(=O)*)N1

Tests used:
Assay in all cases: G' assay (10 uM PL peptide), results of TABLE 7 and TABLE 12
Type in all cases: binding
[1] = molecular target: T1, PDZ protein (GST-PDZ fusion) (Homo sapiens, UniProt Q9Y566); conditions: PDZ SHANK1, PDZ Domain 1
T1 construct: made in house; host or cells: E. coli (DH5alpha, BL21 or JM109)
Procedure, shortened: (§1)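 Same steps as the G-zero format, apart from a peptide concentration of 10 uM in place of 20 uM in step 2. Amino-terminally biotinylated PL peptides bind GST-PDZ fusions, and retained peptide is quantified by 450 nm absorbance.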

[2] = molecular target: T2, PDZ protein (GST-PDZ fusion) (Homo sapiens, UniProt Q9H190)
T2 construct: made in house; host or cells: E. coli (DH5alpha, BL21 or JM109)
T2 sequence (Q9H190 1-292): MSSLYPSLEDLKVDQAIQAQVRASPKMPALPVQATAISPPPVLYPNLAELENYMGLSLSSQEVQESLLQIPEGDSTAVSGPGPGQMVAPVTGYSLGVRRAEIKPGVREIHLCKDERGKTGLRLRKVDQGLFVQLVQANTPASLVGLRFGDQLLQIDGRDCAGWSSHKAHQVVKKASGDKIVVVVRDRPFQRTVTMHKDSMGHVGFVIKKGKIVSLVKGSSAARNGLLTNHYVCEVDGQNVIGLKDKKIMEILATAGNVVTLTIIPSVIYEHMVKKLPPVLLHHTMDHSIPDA
Procedure, shortened: as §1

[3] = molecular target: T3, PDZ protein (GST-PDZ fusion) (Homo sapiens, UniProt Q76G19); conditions: PDZ LU1, PDZ Domain 1
T3 construct: made in house; host or cells: E. coli (DH5alpha, BL21 or JM109)
T3 sequence (Q76G19 1-769): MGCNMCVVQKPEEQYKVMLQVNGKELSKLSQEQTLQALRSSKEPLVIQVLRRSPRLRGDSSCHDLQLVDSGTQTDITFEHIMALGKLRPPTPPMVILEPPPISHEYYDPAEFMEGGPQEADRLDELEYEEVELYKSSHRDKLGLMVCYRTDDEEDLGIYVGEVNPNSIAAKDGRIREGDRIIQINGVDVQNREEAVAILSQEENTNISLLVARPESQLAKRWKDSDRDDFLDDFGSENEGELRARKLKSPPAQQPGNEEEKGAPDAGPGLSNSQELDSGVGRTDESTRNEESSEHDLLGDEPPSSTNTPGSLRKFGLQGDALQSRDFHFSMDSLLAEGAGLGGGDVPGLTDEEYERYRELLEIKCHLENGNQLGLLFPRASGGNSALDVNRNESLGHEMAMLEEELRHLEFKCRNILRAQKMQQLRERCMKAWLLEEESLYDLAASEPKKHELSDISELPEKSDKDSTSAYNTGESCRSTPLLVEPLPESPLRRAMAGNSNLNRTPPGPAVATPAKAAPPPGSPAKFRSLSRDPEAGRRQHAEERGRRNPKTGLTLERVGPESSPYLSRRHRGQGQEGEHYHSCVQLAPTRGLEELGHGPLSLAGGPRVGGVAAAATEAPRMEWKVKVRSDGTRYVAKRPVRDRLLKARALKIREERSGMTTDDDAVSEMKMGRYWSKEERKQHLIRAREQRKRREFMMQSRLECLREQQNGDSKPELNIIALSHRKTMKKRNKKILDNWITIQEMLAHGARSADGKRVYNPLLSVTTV
Procedure, shortened: as §1

T1 sequence (Q9Y566 whole entry, the tested form may be a part): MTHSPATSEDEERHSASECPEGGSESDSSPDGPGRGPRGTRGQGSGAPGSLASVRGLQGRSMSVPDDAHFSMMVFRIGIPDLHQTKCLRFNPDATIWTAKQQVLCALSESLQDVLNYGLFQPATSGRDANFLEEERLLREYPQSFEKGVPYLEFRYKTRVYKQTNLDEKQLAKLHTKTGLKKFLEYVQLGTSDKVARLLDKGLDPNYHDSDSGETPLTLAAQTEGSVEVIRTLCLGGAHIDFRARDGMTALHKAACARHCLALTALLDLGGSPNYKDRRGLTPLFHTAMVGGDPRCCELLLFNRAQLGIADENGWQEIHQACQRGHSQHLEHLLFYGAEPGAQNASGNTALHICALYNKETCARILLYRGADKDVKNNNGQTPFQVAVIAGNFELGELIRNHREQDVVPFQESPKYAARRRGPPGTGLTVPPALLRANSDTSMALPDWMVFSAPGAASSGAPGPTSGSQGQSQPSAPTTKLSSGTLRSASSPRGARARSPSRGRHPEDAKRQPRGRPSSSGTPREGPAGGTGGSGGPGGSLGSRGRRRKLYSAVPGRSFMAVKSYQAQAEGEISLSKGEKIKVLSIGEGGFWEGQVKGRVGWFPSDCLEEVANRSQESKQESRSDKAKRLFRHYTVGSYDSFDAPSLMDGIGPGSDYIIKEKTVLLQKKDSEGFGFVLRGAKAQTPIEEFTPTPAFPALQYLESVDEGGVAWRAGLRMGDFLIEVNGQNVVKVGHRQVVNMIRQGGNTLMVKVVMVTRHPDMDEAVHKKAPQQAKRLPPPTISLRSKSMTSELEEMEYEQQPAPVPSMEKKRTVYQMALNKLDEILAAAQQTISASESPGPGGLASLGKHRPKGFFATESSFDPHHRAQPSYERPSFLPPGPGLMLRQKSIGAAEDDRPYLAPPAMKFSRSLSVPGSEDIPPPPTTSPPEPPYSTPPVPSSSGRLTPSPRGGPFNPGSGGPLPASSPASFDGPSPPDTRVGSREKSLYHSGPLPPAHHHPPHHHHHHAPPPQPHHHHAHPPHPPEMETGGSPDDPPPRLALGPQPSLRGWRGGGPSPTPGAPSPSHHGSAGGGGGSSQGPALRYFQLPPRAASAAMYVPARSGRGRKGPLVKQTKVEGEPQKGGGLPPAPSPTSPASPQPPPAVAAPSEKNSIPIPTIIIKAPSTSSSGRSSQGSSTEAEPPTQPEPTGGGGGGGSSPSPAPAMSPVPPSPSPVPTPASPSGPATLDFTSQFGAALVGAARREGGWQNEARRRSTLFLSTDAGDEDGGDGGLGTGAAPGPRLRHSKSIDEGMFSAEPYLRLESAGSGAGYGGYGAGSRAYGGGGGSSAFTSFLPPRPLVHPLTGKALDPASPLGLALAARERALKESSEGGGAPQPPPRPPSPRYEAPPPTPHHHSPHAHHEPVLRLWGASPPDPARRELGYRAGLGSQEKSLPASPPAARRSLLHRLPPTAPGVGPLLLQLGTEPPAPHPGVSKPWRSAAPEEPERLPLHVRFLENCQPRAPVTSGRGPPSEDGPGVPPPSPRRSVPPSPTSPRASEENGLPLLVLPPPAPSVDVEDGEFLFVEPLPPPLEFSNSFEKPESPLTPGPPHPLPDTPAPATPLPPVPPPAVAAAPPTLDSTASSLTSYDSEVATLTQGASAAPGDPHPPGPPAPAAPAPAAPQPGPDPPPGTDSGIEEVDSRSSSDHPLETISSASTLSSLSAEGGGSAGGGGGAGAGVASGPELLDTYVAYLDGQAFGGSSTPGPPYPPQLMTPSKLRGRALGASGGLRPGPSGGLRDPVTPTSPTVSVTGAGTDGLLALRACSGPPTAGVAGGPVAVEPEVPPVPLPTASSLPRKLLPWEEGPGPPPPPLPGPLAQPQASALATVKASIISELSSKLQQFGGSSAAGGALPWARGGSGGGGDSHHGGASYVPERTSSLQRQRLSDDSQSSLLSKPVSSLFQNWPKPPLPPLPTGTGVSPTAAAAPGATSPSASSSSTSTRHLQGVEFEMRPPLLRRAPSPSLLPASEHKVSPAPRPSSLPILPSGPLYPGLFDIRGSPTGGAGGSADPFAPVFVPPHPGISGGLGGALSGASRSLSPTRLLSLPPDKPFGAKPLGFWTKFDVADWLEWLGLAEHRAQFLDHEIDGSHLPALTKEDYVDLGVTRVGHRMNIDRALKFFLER

Compound: CC[C@H](C)[C@H](NC(=O)[C@H](CC(=O)O)NC(=O)[C@H](CCC(=O)O)NC(=O)[C@H](CCCNC(=N)N)NC(=O)[C@@H](NC(=O)CCCC[C@@H]1SC[C@@H]2NC(=O)N[C@@H]21)[C@@H](C)O)C(=O)N[C@@H](Cc1ccc(O)cc1)C(=O)N[C@H](C(=O)N[C@@H](CC(N)=O)C(=O)N[C@@H](Cc1ccc(O)cc1)C(=O)N1CCC[C@H]1C(=O)N[C@H](C(=O)N[C@@H](Cc1ccccc1)C(=O)N[C@@H](CO)C(=O)N[C@@H](CCCNC(=N)N)C(=O)N[C@@H](CCCNC(=N)N)C(=O)N1CCC[C@H]1C(=O)N[C@@H](CCCCN)C(=O)N[C@H](C(=O)N[C@@H](CCCNC(=N)N)C(=O)N[C@H](C(=O)O)C(C)C)[C@@H](C)O)[C@@H](C)O)C(C)C [DNAM-1] (Biotin-TREDIYVNYPTFSRRPKTRV-OH; C-terminus assumed)
Classification [1]: 5 (A450 nm of 4 more than 2× repeated)

Classification ([2]; PDZ SITAC-18, PDZ Domain 1): 4 (A450 nm 3-4) | Classification ([2]; PDZ SITAC-18, PDZ Domain 2): 4 (A450 nm 3-4)
Compound: A2AA_HUMAN (modified) (Biotin-HDFRRAFKKILARGDRKRIV; not fully specified)

Classification [3]: 4 (A450 nm 3-4)
Compound: A2AC_HUMAN (Modified) (Biotin-DFRPSFKHILFRRARRGFRQ; not fully specified)
